Test results: publication PMC6882843

Biological target: ToxT from Vibrio cholerae serogroup O42 strain SCE-256, wild type, purified (Vibrio cholerae serogroup O42 strain SCE-256) (UniProt Q7BGC0)
Experiment: SEC-SAXS

ToxT from Vibrio cholerae serogroup O42 strain SCE-256, wild type, purified (from UniProt Q7BGC0 1-276) (natural protein)
stoichiometry N: 2
